Patent publication US20030186258

T1: Z-L-tyrosine-L-lysine-L-arginine-p-nitroanilide
T1 chain: YKR


Columns and labels:
[1] = molecular target: fusion protein (peptide portion)-(Lys-Arg)-(h-GH), P01241
[2] = molecular target: T1, Z-L-tyrosine-L-lysine-L-arginine-p-nitro …

Sequence of fusion protein (peptide portion)-(Lys-Arg)-(h-GH), P01241 (P01241 whole entry, looked up, the tested form may be a part): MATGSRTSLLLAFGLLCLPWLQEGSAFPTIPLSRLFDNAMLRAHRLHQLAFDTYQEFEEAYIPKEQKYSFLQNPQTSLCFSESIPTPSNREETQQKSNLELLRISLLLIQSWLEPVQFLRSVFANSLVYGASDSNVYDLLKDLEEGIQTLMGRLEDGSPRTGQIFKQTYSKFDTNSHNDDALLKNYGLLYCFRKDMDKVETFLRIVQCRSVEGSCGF

Row | Protein | reaction yield of hydrolysis (RP-HPLC) [1] | specificity of the hydrolysis (NH2-terminal sequence of the reaction product) [1] | KM [2] [µM] | kcat [2] [s⁻¹] | kcat/KM (µM^-1 × min^-1) [2] | specific activity [2]
1 | ss-Kex1-C600 (soluble secreted Kex1 endoprotease of Kluyveromyces lactis truncated at amino acid 600) (protein) LPIGDSSMEQIQNARILFNISDPLFDQQWHLINPNYPGNDVNVTGLWKENITGYGVVAALVDDGLDYENEDLKDNFCVEGSWDFNDNNPLPKPRLKDDYHGTRCAGEIAAFRNDICGVGVAYNSKVSGIRILSGQITAEDEAASLIYGLDVNDIYSCSWGPSDDGKTMQAPDTLVKKAIIKGVTEGRDAKGALYVFASGNGGMFGDSCNFDGYTNSIFSITVGAIDWKGLHPPYSESCSAVMVVTYSSGSGNYIKTTDLDEKCSNTHGGTSAAAPLAAGIYTLVLEANPNLTWRDVQYLSILSSEEINPHDGKWQDTAMGKRYSHTYGFGKLDAYNIVHMAKSWINVNPQGWLYLPTIVEKQSISNSDEVIESTVSVSAEEFKQNNLKRLEHVTVTVDIDAPYRGHVLVDLISPDGVTSTLATARRLDKNRYGFQNWTFMSVAHWGSSGVGSWKLKVKSTHDNEIVTLKSWRLKMFGETIDAKKAKVISYGNDKEDAE | a reaction yield higher than 95% | gave the expected sequence for h-GH | 61.4 | 3070 | 3000 | a specific activity of approximately 100 U/mg
2 | ss-Kex2-C613 (soluble secreted Kex2 endoprotease of Saccharomyces cerevisiae truncated at amino acid 613) (protein) APPMDSSLLPVKEAEDKLSINDPLFERQWHLVNPSFPGSDINVLDLWYNNITGAGVVAAIVDDGLDYENEDLKDNFCAEGSWDFNDNTNLPKPRLSDDYHGTRCAGEIAAKKGNNFCGVGVGYNAKISGIRILSGDITTEDEAASLIYGLDVNDIYSCSWGPADDGRHLQGPSDLVKKALVKGVTEGRDSKGAIYVFASGNGGTRGDNCNYDGYTNSIYSITIGAIDHKDLHPPYSEGCSAVMAVTYSSGSGEYIHSSDINGRCSNSHGGTSAAAPLAAGVYTLLLEANPNLTWRDVQYLSILSAVGLEKNADGDWRDSAMGKKYSHRYGFGKIDAHKLIEMSKTWENVNAQTWFYLPTLYVSQSTNSTEETLESVITISEKSLQDANFKRIEHVTVTVDIDTEIRGTTTVDLISPAGIISNLGVVRPRDVSSEGFKDWTFMSVAHWGENGVGDWKIKVKTTENGHRIDFHSWRLKLFGESIDSSKTETFVFGNDKEEVE |  |  | 56.8 | 2280 | 12400 | 
